Laboratory results published in US7029857B1, “Processes for obtaining compounds employing SNORF72 receptors” (H. Lundbeck A/S, priority 1999, dated 2006).
Where two headings read alike, the source gives them in different places. No end group written: not given here.

T1: SNORF62 (Homo sapiens, UniProt Q9HB89)
T1 sequence (Q9HB89 1-426): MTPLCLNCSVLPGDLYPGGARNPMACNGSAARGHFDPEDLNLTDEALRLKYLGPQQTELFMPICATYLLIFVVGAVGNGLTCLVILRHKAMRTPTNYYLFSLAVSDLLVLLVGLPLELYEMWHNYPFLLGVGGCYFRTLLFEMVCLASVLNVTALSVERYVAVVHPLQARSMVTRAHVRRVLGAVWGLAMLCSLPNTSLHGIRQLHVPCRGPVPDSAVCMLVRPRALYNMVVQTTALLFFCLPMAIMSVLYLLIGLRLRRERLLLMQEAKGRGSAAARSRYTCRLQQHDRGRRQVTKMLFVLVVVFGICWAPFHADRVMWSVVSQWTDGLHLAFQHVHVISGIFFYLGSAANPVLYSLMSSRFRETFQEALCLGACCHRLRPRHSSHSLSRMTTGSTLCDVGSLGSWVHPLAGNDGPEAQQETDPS

T2: human SNORF62 receptor (human, UniProt Q9HB89 1-426)
T2 sequence: T1 sequence (Q9HB89 1-426)


Tests used:
SNORF72 [1] = molecular target: T3, SNORF72 (Homo sapiens, UniProt Q9GZQ4, A395T); test: Displacement of [125I]rat NMU-23 binding in SNORF72-transfected COS-7 membranes; details: for displacement of [125I]rat NMU-23 binding: SNORF72 membranes
T3 construct: expressed in transfected cells; host or cells: COS-7 (transient, DEAE-dextran)
T3 sequence (Q9GZQ4 whole entry A395T): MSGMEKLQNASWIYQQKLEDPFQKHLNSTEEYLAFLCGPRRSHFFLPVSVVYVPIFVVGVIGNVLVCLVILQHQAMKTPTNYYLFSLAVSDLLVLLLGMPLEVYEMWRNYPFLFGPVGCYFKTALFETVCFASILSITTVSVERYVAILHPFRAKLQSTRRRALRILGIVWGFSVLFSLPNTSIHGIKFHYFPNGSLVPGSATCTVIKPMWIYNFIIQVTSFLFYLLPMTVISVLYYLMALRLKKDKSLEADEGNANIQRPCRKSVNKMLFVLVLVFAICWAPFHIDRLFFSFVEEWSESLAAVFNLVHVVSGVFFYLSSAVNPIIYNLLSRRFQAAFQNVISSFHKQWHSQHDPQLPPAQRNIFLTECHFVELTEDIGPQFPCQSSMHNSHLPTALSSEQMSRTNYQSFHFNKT
Experimental: (§1) The specifics of preparing such cell membranes may in some cases be determined by the nature of the ensuing assay but typically involve harvesting whole cells and disrupting the cell pellet by sonication in ice cold buffer (e.g. 20 mM Tris HCl, mM EDTA, pH 7.4 at 4° C.). The resulting crude cell lysate is cleared of cell debris by low speed centrifugation at 200×g for 5 min at 4° C. The cleared supernatant is then centrifuged at 40,000×g for 20 min at 4° C., and the resulting membrane pellet is washed by suspending in ice cold buffer and repeating the high speed centrifugation step. The final washed membrane pellet is resuspended in assay buffer. Protein concentrations are determined by the method of Bradford (1976) using bovine serum albumin as a standard. The membranes may be used immediately or frozen for later use.
(§2) Radioligand binding assays were performed by diluting membranes prepared from cells expressing the receptor in 50 mM Tris buffer (pH=7.4 at 0° C.) containing 0.1% bovine serum albumin (Sigma), aprotinin (0.005 mg/ml, Boehringer Mannheim) and bestatin (0.1 mM, Sigma) as protease inhibitors. The final protein concentration in the assay was 12–40 μg/ml. […] The bound ligand was separated from free by filtration through GF/B filters presoaked in 0.5% polyethyleneimine (PEI), using a Tomtec (Wallac) vacuum filtration device. After addition of Ready Safe (Beckman) scintillation fluid, bound radioactivity was quantitated using a Trilux (Wallac) scintillation counter (approximately 40% counting efficiency of bound counts). Data was fit to non-linear curves using GraphPad Prism.
(§3) In this manner, agonist or antagonist compounds that bind to the receptor may be identified as they inhibit the binding of the labeled ligand to the membrane protein of cells expressing the said receptor. Non-specific binding was defined as the amount of radioactivity remaining after incubation of membrane protein in the presence of 100 nM of the unlabeled peptide corresponding to the radioligand used. In equilibrium saturation binding assays membrane preparations or intact cells transfected with the receptor are incubated in the presence of increasing concentrations of the labeled compound to determine the binding affinity of the labeled ligand.

SNORF72 [2] = molecular target: T3, SNORF72; test: Intracellular Ca2+ release (FLIPR) in SNORF72-transfected COS-7 cells; type: cell-based; details: SNORF72, data not shown
Experimental: (§4) A typical protocol for the DEAE-dextran method as applied to COS-7 and HEK293 cells is described as follows. Cells to be used for transfection are split 24 hours prior to the transfection to provide flasks which are 70–80% confluent at the time of transfection. Briefly, 8 μg of receptor DNA plus 8 μg of any additional DNA needed (e.g. Gα protein expression vector, reporter construct, antibiotic resistance marker, mock vector, etc.) are added to 9 ml of complete DMEM plus DEAE-dextran mixture (10 mg/ml in PBS). Cells plated into a T225 flask (sub-confluent) are washed once with PBS and the DNA mixture is added to each flask. The cells are allowed to incubate for 30 minutes at 37° C., 5% CO2. Following the incubation, 36 ml of complete DMEM with 80 μM chloroquine is added to each flask and allowed to incubate an additional 3 hours. The medium is then aspirated and 24 ml of complete medium containing 10% DMSO for exactly 2 minutes and then aspirated. The cells are then washed 2 times with PBS and 30 ml of complete DMEM added to each flask. The cells are then allowed to incubate over night. The next day the cells are harvested by trypsinization and reseeded into 96 well plates.
(§5) Cells expressing the receptor of interest are plated into clear, flat-bottom, black-walled 96-well plates (Costar) at a density of 80,000–150,000 cells per well and allowed to incubate for 48 hr at 5% CO2, 37° C. The growth medium is aspirated and 100 μL of loading medium containing Fluo-3 dye is added to each well. The loading medium contains: 20 mM HEPES (Sigma), 0.1% BSA (Sigma), dye/pluronic acid mixture (e.g. 1 mM Fluo-3/AM (Molecular Probes) and 10% pluronic acid (Molecular Probes) mixed immediately before use), and 2.5 mM probenecid (Sigma)(prepared fresh). The cells are allowed to incubate for about 1 hour at 5% CO2, 37° C.
(§6) The compounds of interest are diluted in wash buffer (Hank's BSS (without phenol red), 20 mM HEPES, 2.5 mM probenecid) to a 4× final concentration and aliquoted into a clear v-bottom plate (Nunc). Following the dye incubation, the cells are washed 4 times to remove excess dye using a Denley plate washer. 100 μL final volume of wash buffer is then added to each cell well. Compounds are added to the cell plates and responses are measured using the FLIPR™ instrument. The data are then collected and analyzed using the FLIPR™ software and Graphpad Prism.
(§7) COS-7 cells were transiently transfected with SNORF62, SNORF72 or vector DNA (mock) as described in Materials and Methods.

SNORF62 [3] = molecular target: T1, SNORF62; test: Displacement of [125I]rat NMU-23 binding in SNORF62-transfected COS-7 membranes; set-up: The SNORF62 cDNA codes for a protein of 426 amino acids; expressed in transfected cells; host or cells: COS-7 (transient, DEAE-dextran); details: for displacement of [125I]rat NMU-23 binding: SNORF62 membranes
Experimental: as §1, §2, §3

SNORF62 [4] = molecular target: T1, SNORF62; test: Intracellular Ca2+ release (FLIPR) in SNORF62-transfected COS-7 cells; type: cell-based; set-up: The SNORF62 cDNA codes for a protein of 426 amino acids; expressed in transfected cells; host or cells: COS-7 (transient, DEAE-dextran); details: SNORF62, data not shown
Experimental: as §4, §5, §6, §7

human SNORF62 receptor [5] = molecular target: T2, human SNORF62 receptor; test: displacement of [125I]rat NMU-23, membranes of SNORF62-transfected COS-7 cells
Experimental: as §2, with “µg/ml.” for “μg/ml.”

human SNORF72 receptor [6] = molecular target: T4, human SNORF72 receptor (human, UniProt Q9GZQ4 1-415); test: displacement of [125I]rat NMU-23 (0.05-0.1 nM), membranes of SNORF72-transfected COS-7 cells, n=2
T4 sequence (Q9GZQ4 other isoform, or with tags, fused parts or gaps): as the sequence (Q9GZQ4 whole entry A395T) above
Experimental: as §2, with “µg/ml.” for “μg/ml.”

human SNORF72 receptor [7] = molecular target: T4, human SNORF72 receptor; test: displacement of [125I]rat NMU-23, membranes of SNORF72-transfected COS-7 cells
Experimental: as §2, with “µg/ml.” for “μg/ml.”

human SNORF62 receptor [8] = molecular target: T2, human SNORF62 receptor; test: displacement of [125I]rat NMU-23 (0.05-0.1 nM), membranes of SNORF62-transfected COS-7 cells, n=2
Experimental: as §2, with “µg/ml.” for “μg/ml.”

human SNORF72 receptor [9] = molecular target: T4, human SNORF72 receptor; test: cell-based or functional assay
human SNORF62 receptor [10] = molecular target: T2, human SNORF62 receptor; test: cell-based or functional assay
human SNORF62 receptor [11] = molecular target: T2, human SNORF62 receptor; test: cell-based or functional assay; remark: listed apart in the source

displacement of [125I]rat NMU-23 binding (SNORF72 [1])	activate the receptors in transfected COS-7 cells (SNORF72 [2])	displacement of [125I]rat NMU-23 binding (SNORF62 [3])	activate the receptors in transfected COS-7 cells (SNORF62 [4])	Ki (human SNORF62 receptor [5]) [µM]	pKi (human SNORF72 receptor [6])	Ki (human SNORF72 receptor [7]) [µM]	pKi (human SNORF62 receptor [8])	Molecule	also measured
did not displace binding	did not	did not displace binding	did not					APSEPHHPGDQATQDQLAQYYSDLYQYITFVTRPRF-NH2 (C-terminus assumed) [frog PP]	
did not displace binding	did not	did not displace binding	did not					CC[C@H](C)[C@H](NC(=O)[C@H](Cc1ccc(O)cc1)NC(=O)[C@H](CCCNC(=N)N)NC(=O)[C@H](CCCNC(=N)N)NC(=O)[C@H](CC(C)C)NC(=O)[C@H](CCC(N)=O)NC(=O)[C@@H](NC(=O)[C@H](CCC(=O)O)NC(=O)[C@H](Cc1ccc(O)cc1)NC(=O)[C@H](CCC(N)=O)NC(=O)[C@H](C)NC(=O)[C@H](CCCNC(=N)N)NC(=O)[C@H](CCC(N)=O)NC(=O)[C@H](CCC(=O)O)NC(=O)[C@H](Cc1c[nH]cn1)NC(=O)[C@@H](NC(=O)[C@H](C)NC(=O)[C@H](Cc1ccc(O)cc1)NC(=O)[C@H](CC(=O)O)NC(=O)CNC(=O)[C@@H]1CCCN1C(=O)[C@H](Cc1ccc(O)cc1)NC(=O)[C@H](CCSC)NC(=O)[C@@H]1CCCN1C(=O)[C@H](CCC(=O)O)NC(=O)[C@H](CC(C)C)NC(=O)[C@@H]1CCCN1C(=O)[C@H](C)N)[C@@H](C)O)[C@@H](C)O)C(=O)N[C@@H](CC(N)=O)C(=O)N[C@H](C(=O)N[C@@H](CC(C)C)C(=O)N[C@H](C(=O)N[C@@H](CCCNC(=N)N)C(=O)N1CCC[C@H]1C(=O)N[C@@H](CCCNC(=N)N)C(=O)N[C@@H](Cc1ccc(O)cc1)C(N)=O)[C@@H](C)O)[C@@H](C)O [rat PP]	Ki (SNORF72 [1]; binding affinity, SNORF72-transfected COS-7 cells, unit printed in cell (Table 1A), read-out: SNORF72 Avg Ki): > 10 µM; Ki (SNORF72 [1]; displacement of [125I]rat NMU-23 (0.05-0.1 nM), n = 2 (Table 2), read-out: SNORF72 Avg pKi (converted)): > 10 µM; Ki (SNORF62 [3]; binding affinity, SNORF62-transfected COS-7 cells, unit printed in cell (Table 1A), read-out: SNORF62 Avg Ki): > 10 µM; Ki (SNORF62 [3]; displacement of [125I]rat NMU-23 (0.05-0.1 nM), n = 2 (Table 2), read-out: SNORF62 Avg pKi (converted)): > 10 µM
				> 10	< 5	> 10	< 5	APLEPMYPGDYATHEQRAQYETQLRRYINTLTRPRY (peptide, UniProt P06303 30-65, looked up, also called rat pancreatic polypeptide) [rat PP]	

Continued, molecule first:

Molecule	displacement of [125I]rat NMU-23 binding (SNORF72 [1])	activate the receptors in transfected COS-7 cells (SNORF72 [2])	displacement of [125I]rat NMU-23 binding (SNORF62 [3])	activate the receptors in transfected COS-7 cells (SNORF62 [4])	Ki (human SNORF62 receptor [5]) [µM]	pKi (human SNORF72 receptor [6])	Ki (human SNORF72 receptor [7]) [µM]	pKi (human SNORF62 receptor [8])	also measured
frog PP (peptide)					> 10	< 5	> 10	< 5	
CC[C@H](C)[C@H](NC(=O)[C@H](CO)NC(=O)[C@H](CC(N)=O)NC(=O)[C@H](CC(C)C)NC(=O)[C@H](Cc1ccc(O)cc1)NC(=O)[C@H](CCCCN)NC(=O)[C@H](CCCCN)NC(=O)[C@@H](NC(=O)[C@H](C)NC(=O)[C@H](CCSC)NC(=O)[C@H](CCC(N)=O)NC(=O)[C@H](CCCCN)NC(=O)[C@H](CCCNC(=N)N)NC(=O)[C@H](CC(C)C)NC(=O)[C@H](CCCNC(=N)N)NC(=O)[C@@H](NC(=O)[C@H](Cc1ccc(O)cc1)NC(=O)[C@H](CC(N)=O)NC(=O)[C@H](CC(=O)O)NC(=O)[C@@H](NC(=O)[C@H](Cc1ccccc1)NC(=O)[C@@H](NC(=O)[C@H](C)NC(=O)[C@H](CC(=O)O)NC(=O)[C@H](CO)NC(=O)[C@@H](N)Cc1c[nH]cn1)C(C)C)[C@@H](C)O)[C@@H](C)O)C(C)C)C(=O)N[C@@H](CC(C)C)C(=O)N[C@@H](CC(N)=O)C(N)=O [VIP]	did not displace binding	did not	did not displace binding	did not					
FKVDEEFQGPIVSQNRRYFLFRPRN-NH2 (also called porcine neuromedin U-25) [porcine NMU-25]						8.7	0.0018	9	Avg EC50 (nM), stimulation of Ca2+ release in SNORF72-transfected COS-7 cells (human SNORF72 receptor [9]): 3 nM; Avg EC50 (nM), stimulation of Ca2+ release in SNORF62-transfected COS-7 cells (human SNORF62 receptor [10]): 5.2 nM; AVG EC50 (nM), stimulation of Ca++ release in SNORF62-transfected COS-7 cells (FLIPR) (human SNORF62 receptor [11]): 5.2 nM
HSDAVFTDNYTRLRKQMAVKKYLNSILN-NH2 (peptide, UniProt P01282 125-152, looked up, species assumed, ends and bridges not checked) [vasoactive intestinal peptide]					> 10	< 5	> 10	< 5	
